# Data as given in FireProtDB (doi:10.1006/jmbi.1993.1336).
# B1: Guanyl-specific ribonuclease T1, P00651 (parent)
# chain: MMYSKLLTLTTLLLPTALALPSLVERACDYTCGSNCYSSSDVSTAQAAGYQLHEDGETVGSNSYPHKYNNYEGFDFSVSSPYYEWPILSSGDVYSGGSPGADRVVFNENNQLAGVITHTGASGNNFVECT
# Variants of: B1
# Settings: Aspergillus oryzae (strain ATCC 42149 / RIB 40); pH 5; 25 °C; GdnHCl; Fluorescence; Sodium acetate 0.1 M; reversible: yes; structure 1RN1; whole UniProt chain shown
Variant,ddG of mutation (higher = less stable),denaturant m value,denaturant midpoint (higher = more stable),unfolding free energy
MMYSKLLTLTTLLLPTALALPSLVERACDYTCGSNCYSSSDVSTAQAAGYQLHEDGETVGSNSYAHKYNNYEGFDFSVSSPYYEWPILSSGDVYSGGSPGADRVVFNENNQLAGVITHTGASGNNFVECT [P65A],5.12 kcal/mol,2.63 kcal/mol/M,1.71 M,4.88 kcal/mol

# Same assay, conditions: Aspergillus oryzae (strain ATCC 42149 / RIB 40); pH 8; 10 °C; GdnHCl; Fluorescence; Tris 0.1 M; reversible: yes; structure 1RN1; whole UniProt chain shown
Variant,ddG of mutation (higher = less stable),denaturant m value,denaturant midpoint (higher = more stable),unfolding free energy
MMYSKLLTLTTLLLPTALALPSLVERACDYTCGSNCYSSSDVSTAQAAGYQLHEDGETVGSNSYAHKYNNYEGFDFSVSSPYYEWPILSSGDVYSGGSPGADRVVFNENNQLAGVITHTGASGNNFVECT [P65A],4.33 kcal/mol,2.87 kcal/mol/M,1.43 M,4.11 kcal/mol
